The values below come from article PMC11242883.

For assay [1], the target named is eel follicle-stimulating hormone receptor (eel FSHR) on CHO-K1 cells (eel).
In assay [2] the target is eel follicle-stimulating hormone receptor (eel FSHR) on HEK293 cells (eel).

As for “recombinant single-chain eel follicle-stimulating hormone mutant with the eCG β-subunit CTP linker (amino acids 115–149) between the β-subunit and the α-subunit (eel FSH-M) (from UniProt P08751 135-169) (ligand)”, in assay [1], the cAMP production (HTRF) in CHO-K1 cells transiently expressing eel FSHR, 30 min, dose-response: EC50 came to 0.129 µg/mL. In addition, in assay [2], the pERK1/2 HTRF ratio in HEK293 cells transiently expressing eel FSHR, time course 0-30 min after agonist; peak at 5 min is 7090.

“recombinant single-chain (tethered) eel follicle-stimulating hormone, wild type (eel FSH β/α-wt) (ligand)” displayed a cAMP production (HTRF) in CHO-K1 cells transiently expressing eel FSHR, 30 min, dose-response: EC50 in assay [1] of 0.16 µg/mL. For the same substance, the pERK1/2 HTRF ratio in HEK293 cells transiently expressing eel FSHR, time course 0-30 min after agonist; peak at 5 min in assay [2] was 7460.
